From US20210332109A1

What was measured:
[1] = molecular target: the antibody (of the immunochromatographic analysis device used in Test Example 8); assay: competitive inhibition in the immunochromatographic sandwich on VZV gE recombinant protein, P2 added; row 5 ng/mL
[2] = molecular target: the antibody (of the immunochromatographic analysis device used in Test Example 8); assay: competitive inhibition in the immunochromatographic sandwich on VZV gE recombinant protein, P2 added; row 0.5 ng/mL
[3] = molecular target: the antibody (of the immunochromatographic analysis device used in Test Example 8); assay: competitive inhibition in the immunochromatographic sandwich on VZV gE recombinant protein, P1 added; row 5 ng/mL
[4] = molecular target: the antibody (of the immunochromatographic analysis device used in Test Example 8); assay: competitive inhibition in the immunochromatographic sandwich on VZV gE recombinant protein, P1 added; row 0.5 ng/mL
[5] = molecular target: VZV gE recombinant protein (CalBioreagents, Inc.) (varicella-zoster virus) (UniProt P09259); assay: immunochromatographic sandwich; row antibody gold-labelled, Antibody 3 on the detection line
Sequence of VZV gE recombinant protein (CalBioreagents, Inc.) (varicella-zoster virus) (P09259 31-538 limits assumed): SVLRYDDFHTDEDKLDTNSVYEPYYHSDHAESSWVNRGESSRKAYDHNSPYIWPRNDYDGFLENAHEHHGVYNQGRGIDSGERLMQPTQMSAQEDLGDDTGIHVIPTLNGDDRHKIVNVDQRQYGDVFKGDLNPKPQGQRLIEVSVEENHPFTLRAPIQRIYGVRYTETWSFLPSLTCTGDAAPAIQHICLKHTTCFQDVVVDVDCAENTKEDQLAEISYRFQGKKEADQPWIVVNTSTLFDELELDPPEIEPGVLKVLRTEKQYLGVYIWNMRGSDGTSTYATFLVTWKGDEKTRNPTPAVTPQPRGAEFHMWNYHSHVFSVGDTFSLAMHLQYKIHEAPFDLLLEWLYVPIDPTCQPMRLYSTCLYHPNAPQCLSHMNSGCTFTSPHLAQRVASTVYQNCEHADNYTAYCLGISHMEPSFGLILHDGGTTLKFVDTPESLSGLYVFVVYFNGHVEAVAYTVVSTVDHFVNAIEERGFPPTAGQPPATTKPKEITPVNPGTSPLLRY

[6] = molecular target: VZV gE recombinant protein (CalBioreagents, Inc.) (varicella-zoster virus) (UniProt P09259); assay: immunochromatographic sandwich; row antibody gold-labelled, Antibody 9 on the detection line
[7] = molecular target: VZV gE recombinant protein (CalBioreagents, Inc.) (varicella-zoster virus) (UniProt P09259); assay: immunochromatographic sandwich; row antibody gold-labelled, Antibody 2 on the detection line
[8] = molecular target: VZV gE recombinant protein (CalBioreagents, Inc.) (varicella-zoster virus) (UniProt P09259); assay: immunochromatographic sandwich; row antibody gold-labelled, Antibody 5 on the detection line
[9] = molecular target: VZV gE recombinant protein (CalBioreagents, Inc.) (varicella-zoster virus) (UniProt P09259); assay: immunochromatographic sandwich; row antibody gold-labelled, Antibody 18 on the detection line
[10] = molecular target: VZV gE recombinant protein (CalBioreagents, Inc.) (varicella-zoster virus) (UniProt P09259); assay: immunochromatographic sandwich; row antibody gold-labelled, Antibody 4 on the detection line
[11] = molecular target: the antibody (of the immunochromatographic analysis device used in Test Example 8); assay: competitive inhibition in the immunochromatographic sandwich on VZV gE recombinant protein, P4 added; row 0.5 ng/mL
[12] = molecular target: the antibody (of the immunochromatographic analysis device used in Test Example 8); assay: competitive inhibition in the immunochromatographic sandwich on VZV gE recombinant protein, P4 added; row 5 ng/mL
[13] = molecular target: the antibody (of the immunochromatographic analysis device used in Test Example 8); assay: competitive inhibition in the immunochromatographic sandwich on VZV gE recombinant protein, P3 added; row 0.5 ng/mL
[14] = molecular target: the antibody (of the immunochromatographic analysis device used in Test Example 8); assay: competitive inhibition in the immunochromatographic sandwich on VZV gE recombinant protein, P3 added; row 5 ng/mL

For YYHSDHAESSWVNRGESSR, the color development intensity [1] was 697 mAbs and the color development intensity [2] was 127 mAbs.

For NSVYEPYYHSDHAESSWVNR, the color development intensity [3] was 726 mAbs and the color development intensity [4] was 136 mAbs.

B1: Antibody 9 (antibody, V domains shown)
VH: EVQLEESGPELVKPGASVKIPCKASGYTFTDYNMDWVKQNHGKSLEWIGEINPENGGTIYNQTFKGKATLTVDKSSSTAYMELRSLTSEDTAVYYCARSPWFTYWGQGTLVTVSA
VL: DIVLTQTTASLSMAIGEIVTIRCITSTDIGDDMNWYQQKPGEPPKFLISEGNTLRPGVPSRFSSSGYGTDFVFTVENILSEDVADYYCLQSDNLPHVRLGDKVGNK
B1 showed a color development intensity [5] of 53, a color development intensity [6] of 29 and a color development intensity [7] of 39. The color development intensity [8] was 52, the color development intensity [9] was 218 and the color development intensity [10] was 5.

With ESSRKAYDHNSPYIWPRNDY the color development intensity [11] was 149 mAbs and the color development intensity [12] was 596 mAbs.

SSWVNRGESSRKAYDHNSPY gave a color development intensity [13] of 128 mAbs and a color development intensity [14] of 677 mAbs.
